Reference: paper PMC8422075 (EMBO Molecular Medicine, 2021)

Molecular target: T1, Human LAG3_(23–434) (human, UniProt P18627 23-434, fluorescently labelled (fluorophore and site not named))
T1 construct: Used only in the microfluidic diffusional sizing; also called labelled LAG3; source: bought: BonOpusBio (#CJ91)
T1 sequence (looked up): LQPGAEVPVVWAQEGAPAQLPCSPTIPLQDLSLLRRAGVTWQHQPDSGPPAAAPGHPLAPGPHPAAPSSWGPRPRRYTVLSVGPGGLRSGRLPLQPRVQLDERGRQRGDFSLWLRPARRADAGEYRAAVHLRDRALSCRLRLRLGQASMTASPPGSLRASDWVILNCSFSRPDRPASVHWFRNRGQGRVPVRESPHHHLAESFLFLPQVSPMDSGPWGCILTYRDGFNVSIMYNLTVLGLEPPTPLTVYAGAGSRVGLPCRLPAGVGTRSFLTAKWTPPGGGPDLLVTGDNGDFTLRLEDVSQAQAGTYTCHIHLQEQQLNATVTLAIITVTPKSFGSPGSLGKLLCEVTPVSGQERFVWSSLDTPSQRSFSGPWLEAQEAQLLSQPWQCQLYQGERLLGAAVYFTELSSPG
Assay: microfluidic diffusional sizing; fluorescently labelled protein (10 nM-10 µM) in solution, unlabelled ligand varied; PBS with 0.01% Tween-20; 60 min at room temperature; hydrodynamic radius read out; KD from Langmuir binding isotherm
Details: both partners purified

Kd: 232 ± 79 nM
B1: FGL1 Protein, Human, Recombinant (ligand, UniProt Q08830 23-312, looked up)
chain: LEDCAQEQMRLRAQVRLLETRVKQQQVKIKQLLQENEVQFLDKGDENTVIDLGSKRQYADCSEIFNDGYKLSGFYKIKPLQSPAEFSVYCDMSDGGGWTVIQRRSDGSENFNRGWKDYENGFGNFVQKHGEYWLGNKNLHFLTTQEDYTLKIDLADFEKNSRYAQYKNFKVGDEKNFYELNIGEYSGTAGDSLAGNFHPEVQWWASHQRMKFSTWDRDHDNYEGNCAEEDQSGWWFNRCHSANLNGVYYSGPYTAKTDNGIVWYTWHGWWYSLKSVVMKIRPNDFIPNVI
notes: Fibrinogen-like protein 1, human, recombinant; source: bought: Sino Biological (13484‐H08B)
